Test results published in the supplement of paper PMC10126150.
± gives the standard deviation of the averaged measurements.

Test system: ATP
Assay: switch fluorescence ratio, 500 uM ATP over buffer (Cy3 cluster intensity, sum of 5 cycles each) (fold (ratio)); higher = stronger signal-on switching upon ATP binding; sequences stand for … in TCGTCGGCAGCGTCAGATGTGTATAAGAGACAGTTTTTTTTTTTTTTTTTTTTTTTTT…TC
Settings: aptamer strand: ATP DNA aptamer (quencher-CACCTGGGGGAGTATTGCGGAGGAAGG + anchor), 100 nM annealed; ATP concentration: 500 uM
Outline: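 Cy3-labelled switching-strand clusters on a modified Illumina MiSeq flow-cell were annealed to 100 nM quencher-labelled ATP aptamer and imaged first in selection buffer, then after 15 min with 500 uM ATP at 22 °C. NaOH stripping and re-annealing separated each of five buffer/ATP cycles, and clusters outside 100-1000 RFU were excluded. The fluorescence ratio sums target-cycle Cy3 intensity over buffer-cycle Cy3 intensity per cluster and averages it per switch-domain sequence.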
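Further: ATP exposure 15 min at 22 °C before imaging.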

| Sequence | switch fluorescence ratio |
| --- | --- |
| ATTAGGAGTC | 0.999 ± 0.012 |
| ATTAGGGAAT | 0.976 ± 0.04 |
| ATTAGGGTTA | 0.9928 ± 0.0088 |
| ATTAGGGTTC | 1.44 ± 0.47 |
| ATTAGTAGAA | 0.995 ± 0.016 |
| ATTAGTAGGT | 0.976 ± 0.012 |
| ATTAGTAGTT | 0.996 ± 0.057 |
| ATTAGTCTAT | 0.988 ± 0.036 |
| ATTAGTCTGC | 0.996 ± 0.033 |
| ATTAGTGCCG | 1.04 ± 0.14 |
| ATTATAAGGG | 1.02 ± 0.056 |
| ATTATCAGGT | 1.06 ± 0.057 |
| ATTATGATGC | 0.992 ± 0.014 |
| ATTATGATTG | 0.98 ± 0.028 |
| ATTATGCTGC | 0.977 ± 0.033 |
| ATTATGCTTT | 1 ± 0.021 |
| ATTATGGCGA | 1.04 ± 0.023 |
| ATTATGGGTC | 1 ± 0.043 |
| ATTATGGGTT | 0.995 ± 0.029 |
| ATTATGTAGG | 0.988 ± 0.015 |
| ATTATGTCGT | 1 ± 0.013 |
| ATTATGTGTC | 0.959 ± 0.048 |
| ATTATTAGTC | 1.01 ± 0.022 |
| ATTATTGCGT | 1.03 ± 0.04 |
| ATTATTTCCC | 1.05 ± 0.082 |
| ATTATTTGAC | 1.08 ± 0.067 |

| Sequence | switch fluorescence ratio |
| --- | --- |
| ATTATTTGGT | 1.01 ± 0.014 |
| ATTATTTTTT | 1.02 ± 0.046 |
| ATTCAAGTCA | 1.03 ± 0.025 |
| ATTCACAGTT | 1.03 ± 0.033 |
| ATTCACCCGC | 1.48 ± 0.13 |
| ATTCAGAAGA | 1.07 ± 0.12 |
| ATTCAGCCGC | 1.62 ± 0.083 |
| ATTCAGGTTT | 0.992 ± 0.026 |
| ATTCATAGGC | 1 ± 0.052 |
| ATTCATGATA | 0.975 ± 0.013 |
| ATTCATGTTG | 0.996 ± 0.014 |
| ATTCCGTATT | 1.44 ± 0.68 |
| ATTCCTCGAC | 1.67 ± 0.11 |
| ATTCCTTTTT | 0.9996 ± 0.0094 |
| ATTCGAATCG | 1.05 ± 0.12 |
| ATTCGAATGT | 0.9994 ± 0.0013 |
| ATTCGAGCTG | 1.002 ± 0.0034 |
| ATTCGAGGTT | 0.987 ± 0.071 |
| ATTCGCATGT | 1.15 ± 0.04 |
| ATTCGCTGCT | 1 ± 0.02 |
| ATTCGGAGGG | 0.984 ± 0.011 |
| ATTCGGGATA | 1 ± 0.02 |
| ATTCGGGATG | 0.979 ± 0.017 |
| ATTCGGGCCA | 1.01 ± 0.037 |
| ATTCGGTAGT | 1 ± 0.013 |
| ATTCGGTTAT | 1.01 ± 0.045 |

| Sequence | switch fluorescence ratio |
| --- | --- |
| ATTCGTATAT | 0.969 ± 0.051 |
| ATTCGTCAAT | 1.18 ± 0.13 |
| ATTCGTCTAG | 0.989 ± 0.012 |
| ATTCGTGTTT | 0.978 ± 0.017 |
| ATTCGTTTGC | 1 ± 0.057 |
| ATTCTCAGTG | 1.01 ± 0.038 |
| ATTCTCCATT | 1.0229 ± 0.00088 |
| ATTCTGACCG | 1.09 ± 0.068 |
| ATTCTGAGGC | 1.03 ± 0.045 |
| ATTCTTCGC | 1.06 ± 0.011 |
| ATTCTTTCTT | 1.002 ± 0.0018 |
| ATTGAAGCTT | 1.009 ± 0.0089 |
| ATTGAAGGGA | 1.018 ± 0.0059 |
| ATTGAAGGGG | 0.975 ± 0.016 |
| ATTGAATGGT | 1.006 ± 0.0027 |
| ATTGACATAT | 1.054 ± 0.0046 |
| ATTGACGTGT | 1 ± 0.035 |
| ATTGACTGAT | 1.03 ± 0.044 |
| ATTGAGAGAT | 1.03 ± 0.014 |
| ATTGAGCTGT | 0.9812 ± 0.0062 |
| ATTGAGGCAA | 1.22 ± 0.066 |
| ATTGAGGGGG | 1.04 ± 0.052 |
| ATTGAGGGTT | 0.985 ± 0.019 |
| ATTGAGTAA | 0.976 ± 0.025 |
| ATTGAGTAGC | 1.01 ± 0.032 |
| ATTGAGTTTA | 0.99883 ± 7e-05 |

| Sequence | switch fluorescence ratio |
| --- | --- |
| ATTGATATTT | 0.998 ± 0.019 |
| ATTGATCTCG | 1.04 ± 0.083 |
| ATTGATGGGC | 0.9644 ± 0.0037 |
| ATTGATGTTC | 0.99 ± 0.053 |
| ATTGATTAGT | 1.12 ± 0.18 |
| ATTGATTGAC | 1.05 ± 0.043 |
| ATTGATTGAG | 0.986 ± 0.022 |
| ATTGATTTAA | 0.9989 ± 0.0086 |
| ATTGCAAATC | 1.027 ± 0.0094 |
| ATTGCAGTTT | 0.986 ± 0.022 |
| ATTGCCACGG | 1.033 ± 0.0089 |
| ATTGCCGCTC | 1.04 ± 0.036 |
| ATTGCGATTC | 1.159 ± 0.01 |
| ATTGCGGTCA | 1.01 ± 0.048 |
| ATTGCTCGA | 0.993 ± 0.02 |
| ATTGCTGGCG | 0.939 ± 0.039 |
| ATTGGAAGGC | 0.967 ± 0.017 |
| ATTGGACGTT | 0.988 ± 0.016 |
| ATTGGAGCAG | 1.055 ± 0.0098 |
| ATTGGATCGA | 1.01 ± 0.054 |
| ATTGGATCGG | 0.9956 ± 0.0095 |
| ATTGGCAAAA | 1.01 ± 0.035 |
| ATTGGCATGC | 0.996 ± 0.027 |
| ATTGGGCGAG | 0.993 ± 0.013 |
| ATTGGGGGGA | 0.982 ± 0.018 |
| ATTGGGGGGG | 1.02 ± 0.044 |

| Sequence | switch fluorescence ratio |
| --- | --- |
| ATTGGGGTG | 1.03 ± 0.11 |
| ATTGGGGTTC | 1.01 ± 0.067 |
| ATTGGGGTTG | 1 ± 0.017 |
| ATTGGGTATT | 0.9749 ± 0.007 |
| ATTGGGTCTA | 0.978 ± 0.021 |
| ATTGGGTGTC | 0.985 ± 0.039 |
| ATTGGTAACG | 0.9981 ± 0.0037 |
| ATTGGTAGGC | 1.03 ± 0.023 |
| ATTGGTAGTT | 0.9687 ± 0.0067 |
| ATTGGTCAAG | 0.985 ± 0.039 |
| ATTGGTCTGC | 1.02 ± 0.04 |
| ATTGGTGTCT | 1.01 ± 0.034 |
| ATTGGTTGTT | 1.01 ± 0.036 |
| ATTGGTTTAA | 0.9981 ± 0.002 |
| ATTGGTTTCG | 0.9835 ± 0.0051 |
| ATTGGTTTGT | 0.998 ± 0.013 |
| ATTGGTTTTT | 1.07 ± 0.19 |
| ATTGTACAGT | 1.02 ± 0.025 |
| ATTGTACGCT | 1.015 ± 0.0056 |
| ATTGTAGAGC | 1.02 ± 0.01 |
| ATTGTAGGGA | 1 ± 0.015 |
| ATTGTGATCT | 0.989 ± 0.021 |
| ATTGTGCATT | 0.979 ± 0.052 |
| ATTGTGCGTA | 0.9711 ± 0.0057 |
| ATTGTGTCAC | 1 ± 0.028 |
| ATTGTGTCTA | 0.9935 ± 0.007 |

| Sequence | switch fluorescence ratio |
| --- | --- |
| ATTGTGTCTT | 0.99 ± 0.013 |
| ATTGTGTGGG | 0.999 ± 0.036 |
| ATTGTGTTAG | 1.03 ± 0.055 |
| ATTGTTAATT | 1.013 ± 0.01 |
| ATTGTTACGG | 0.998 ± 0.024 |
| ATTGTTCTCC | 1.04 ± 0.057 |
| ATTGTTGCTG | 0.993 ± 0.061 |
| ATTGTTTCTA | 1 ± 0.014 |
| ATTGTTTTGA | 0.9818 ± 0.0088 |
| ATTGTTTTTG | 1.01 ± 0.026 |
| ATTTAAATGT | 1.01 ± 0.023 |
| ATTTAAATTA | 1.01 ± 0.017 |
| ATTTAACCCG | 1.02 ± 0.044 |
| ATTTAACGGG | 1.006 ± 0.0056 |
| ATTTAAGCTT | 1.07 ± 0.048 |
| ATTTAAGGCT | 0.99 ± 0.012 |
| ATTTAATTAC | 1.02 ± 0.0013 |
| ATTTACAGAT | 1.04 ± 0.03 |
| ATTTACATTT | 1.02 ± 0.011 |
| ATTTACCGAA | 1.05 ± 0.019 |
| ATTTACTCAT | 1.038 ± 0.0012 |
| ATTTAGGATG | 1.01 ± 0.021 |
| ATTTAGGCTG | 1.062 ± 0.0089 |
